T1: Rhesus D antigen (human, UniProt Q02161 2-417)
T1 construct: whole, on cells; Presented on RhD-positive erythrocytes in all assays; also called RhD; RhD antigen
T1 sequence (looked up): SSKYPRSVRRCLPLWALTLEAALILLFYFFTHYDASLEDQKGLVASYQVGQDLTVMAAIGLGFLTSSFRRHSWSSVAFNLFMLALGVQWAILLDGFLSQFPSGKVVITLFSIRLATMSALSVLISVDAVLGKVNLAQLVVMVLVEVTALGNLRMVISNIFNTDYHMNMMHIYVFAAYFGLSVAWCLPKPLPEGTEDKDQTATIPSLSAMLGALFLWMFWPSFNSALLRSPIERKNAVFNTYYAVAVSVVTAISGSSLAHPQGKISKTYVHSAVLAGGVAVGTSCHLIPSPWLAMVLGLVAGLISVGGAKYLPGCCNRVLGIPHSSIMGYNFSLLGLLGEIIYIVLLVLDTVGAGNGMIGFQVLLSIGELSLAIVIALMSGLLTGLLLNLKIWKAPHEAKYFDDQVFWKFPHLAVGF

B1: RhD323.229B07 (Fab, V domains shown)
VH: QVQLVESGGGVVQPGRSLRLSCAASGFTFSSYGMHWVRQAPGKGLEWVAVIWYDGSNKYYADSVKGRFTISRDNSKNTLYLQMNSLRAEDTAVYYCARDWVTRSSNWYRNYYYYGMDVWGQGTTVTVSS
VL: DIQMTQSPSSLSASVGDRVTITCRASQSISSYLNWYQQKPGKAPKLLIYAASTLQSGVPSRFSGSGSGTDFTLTISSLQPEDFATYYCQQYYRTPTWTFGQGTKVEIKR
notes: Tested as Fab (periplasmic extract)
B2: RhD189.181E07 (Fab, V domains shown)
VH: QVQLVESGGGVVQPGRSLRLSCAASGFTFSSYGMHWVRQAPGKGLEWVAVIWYDGSNKYYADSVKGRFTISRDNSKNTLYLQMNSLRAEDTAVYYCARDMVTMVRGAYRNYYYYGMDVWGKGTTVTVSS
VL: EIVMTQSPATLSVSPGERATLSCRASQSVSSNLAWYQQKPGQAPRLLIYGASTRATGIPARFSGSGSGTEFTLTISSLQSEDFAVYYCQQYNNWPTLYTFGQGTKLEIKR
notes: as for B1
B3: RhD162.119G12 (Fab, V domains shown)
VH: QVQLVESGGGLVKPGGSLRLSCAASGFGFSAYSMNWVRQAPGKGLEWVSSITSTTTYYADSVKGRFSISRDNAKSTLYLRMNSLRAEDTAVYYCVREIAFRGSTYSRWSYYFDFWGQGTLVTVSS
VL: DIQLTQSPSSVSASVGDSVTITCRASQAVSGWVAWYQQKPGKAPKLLIFGLSNLEDGVPSRFSGSGSATDFTLTITGLQPEDLATYYCLQANRFPLSFGGGTRVEIKR
notes: as for B1
B4: RhD324.231F07 (Fab, V domains shown)
VH: EVQLVESGGGLVQPGRSLRLSCVASGFTFSSYWMHWVRQVPGKGLVWVSRINVDGKSTSYADSVKGRFTISRDNAKNTLYLQMNSLRAEDTAVYYCARDPRRFLEWARYGMDVWGRGTTVTVSS
VL: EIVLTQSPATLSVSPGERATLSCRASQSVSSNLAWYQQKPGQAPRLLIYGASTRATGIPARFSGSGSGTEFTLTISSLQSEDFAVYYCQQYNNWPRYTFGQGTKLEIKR
notes: as for B1
B5: RhD163.119A02 (Fab, V domains shown)
VH: QVQLQESGPGLVKPSETLSLTCTVSGGSISSYYWSWVRQPPGKGLEWIGYIYYSGSTNYNPSLKSRVTIALDTSKNQFSLKLRSVTAADTAVYFCTRDWRQYGSAIRGSRYYYGMDVWGQGTTVTVSS
VL: EIVLTQSPGTLSLSPGERATLSCRASQNPRRNFLAWYQQKPGQAPRLLIYAASTRATGIPDRFSGSGSGTDFTLTIDRLEPEDSAVYYCQVYGSSPLYTFGQGTKVEMKR
notes: as for B1

These binders were tested against T1, Rhesus D antigen (assay: Fab screening on red blood cells (agglutination/FACS)).

Binding result, binds:
B1
B2
B3
B4
B5

— patent US20110217317A1 (published 2011)
